# Like-named read-outs stand apart in the source and are kept apart here. Ends that are not written are not given here.
# Legend:
# [1] = target: T1, human KDR-Fc fusion (R&D Systems #357-KD-050) (human, UniProt P35968 20-764); assay: phage binding screen on KDR-Fc; class legend in paragraph 246
# T1 construct: bought
# [2] = target: T1, human KDR-Fc fusion (R&D Systems …); assay: as above; remark: listed apart in the source
# T1 sequence (P35968 20-764): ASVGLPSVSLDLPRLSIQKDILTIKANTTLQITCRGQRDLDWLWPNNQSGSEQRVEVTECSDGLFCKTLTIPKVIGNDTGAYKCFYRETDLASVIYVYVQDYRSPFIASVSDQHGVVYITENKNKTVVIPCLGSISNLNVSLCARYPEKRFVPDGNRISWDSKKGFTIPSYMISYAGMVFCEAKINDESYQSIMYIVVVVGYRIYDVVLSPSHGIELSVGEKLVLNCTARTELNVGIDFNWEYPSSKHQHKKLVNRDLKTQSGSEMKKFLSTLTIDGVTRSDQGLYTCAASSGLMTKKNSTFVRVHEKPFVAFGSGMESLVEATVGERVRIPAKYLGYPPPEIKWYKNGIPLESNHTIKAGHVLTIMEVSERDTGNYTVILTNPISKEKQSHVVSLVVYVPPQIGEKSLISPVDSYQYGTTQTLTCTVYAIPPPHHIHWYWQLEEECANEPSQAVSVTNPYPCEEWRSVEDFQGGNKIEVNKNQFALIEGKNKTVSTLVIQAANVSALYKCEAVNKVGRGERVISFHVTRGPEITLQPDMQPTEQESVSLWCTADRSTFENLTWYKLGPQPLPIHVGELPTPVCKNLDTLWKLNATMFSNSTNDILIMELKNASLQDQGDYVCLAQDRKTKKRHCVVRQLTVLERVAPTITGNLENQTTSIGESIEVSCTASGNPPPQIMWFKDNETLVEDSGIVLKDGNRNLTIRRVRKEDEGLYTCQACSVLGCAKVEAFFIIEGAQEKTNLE
binder,measurement,setting,value
PAQCWESNYQGIFFCDNP [phage isolate PAQCWESNYQGIFFCDNP],binding result,[1],binds
PSNSWAAVWEDDMQRLMRQH [phage isolate PSNSWAAVWEDDMQRLMRQH],binding result,[2],binds
DSWCELEHQSGIWRCDFW [phage isolate DSWCELEHQSGIWRCDFW],binding result,[1],binds
LDNCIWNVWKGVQDCEYS [phage isolate LDNCIWNVWKGVQDCEYS],binding result,[1],binds
LSLCYNDMHGWWEHCQWY [phage isolate LSLCYNDMHGWWEHCQWY],binding result,[1],binds
DWACDEYWSAYSVLCKHP [phage isolate DWACDEYWSAYSVLCKHP],binding result,[1],binds
FDVVNWGDGIWYAYPS [phage isolate FDVVNWGDGIWYAYPS],binding result,[2],binds
DWYYDEILSMADQLRHAFLS [phage isolate DWYYDEILSMADQLRHAFLS],binding result,[2],binds
WYYDWFHNQRKPPSDWIDNL [phage isolate WYYDWFHNQRKPPSDWIDNL],binding result,[2],binds
GSDHVRVDNYWWNGMAWEIF [phage isolate GSDHVRVDNYWWNGMAWEIF],binding result,[2],binds
DWYWREWMPMHAQFLADDW [phage isolate DWYWREWMPMHAQFLADDW],binding result,[2],binds
MPPGFSYWEQVVLHDDAQVL [phage isolate MPPGFSYWEQVVLHDDAQVL],binding result,[2],binds
KKEDAQQWYWTDYVPSYLYR [phage isolate KKEDAQQWYWTDYVPSYLYR],binding result,[2],binds
ISPWREMSGWGMPWITAVPH [phage isolate ISPWREMSGWGMPWITAVPH],binding result,[2],binds
GWCQMDAQGIWSCWAD [phage isolate GWCQMDAQGIWSCWAD],binding result,[1],binds
NGSCWYDFGWETEICFHN [phage isolate NGSCWYDFGWETEICFHN],binding result,[1],binds
PPFCIYQEPSGQWWCYDH [phage isolate PPFCIYQEPSGQWWCYDH],binding result,[1],binds
AFPRFGGDDYWIQQYLRYTD [phage isolate AFPRFGGDDYWIQQYLRYTD],binding result,[2],binds
AFPRFGGDDYWIQQYLRYTF [phage isolate AFPRFGGDDYWIQQYLRYTF],binding result,[2],binds
PRLGDDFEEAPPLEWWWAHF [phage isolate PRLGDDFEEAPPLEWWWAHF],binding result,[2],binds
RSWYLGPPYYEEWDPIPN [phage isolate RSWYLGPPYYEEWDPIPN],binding result,[2],binds
DHMCRSPDYQDHVFCMYW [phage isolate DHMCRSPDYQDHVFCMYW],binding result,[1],binds
FPSQMWQQKVSHHFFQHKGY [phage isolate FPSQMWQQKVSHHFFQHKGY],binding result,[2],binds
PGHCEYIWIDEQPWCVRL [phage isolate PGHCEYIWIDEQPWCVRL],binding result,[1],binds
GDYVYWEIIELTGATDHTPP [phage isolate GDYVYWEIIELTGATDHTPP],binding result,[2],binds
DRWCMLDQEKGWWLCGPP [phage isolate DRWCMLDQEKGWWLCGPP],binding result,[1],binds
GGWCQLVDHSWWWCGDS [phage isolate GGWCQLVDHSWWWCGDS],binding result,[1],binds
DWYWQRERDKLREHYDDAFW [phage isolate DWYWQRERDKLREHYDDAFW],binding result,[2],binds
YPGCYETSLSGVWFCADG [phage isolate YPGCYETSLSGVWFCADG],binding result,[1],binds
SRVCWEYSWGGQICLGY [phage isolate SRVCWEYSWGGQICLGY],binding result,[1],binds
GSWCEMRQDVGKWNCFSD [phage isolate GSWCEMRQDVGKWNCFSD],binding result,[1],binds
NWKCEYTQGYDYTECVYL [phage isolate NWKCEYTQGYDYTECVYL],binding result,[1],binds
ARMGDDWEEAPPHEWGWADG [phage isolate ARMGDDWEEAPPHEWGWADG],binding result,[2],binds
SDLCYNQSGWWELCYFD [phage isolate SDLCYNQSGWWELCYFD],binding result,[1],binds
RGDYQEQYWHQQLVEQLKLL [phage isolate RGDYQEQYWHQQLVEQLKLL],binding result,[2],binds
YYQCQRYWDGKTWWCEYN [phage isolate YYQCQRYWDGKTWWCEYN],binding result,[1],binds
PFWCKFQQSKAMFPCSWF [phage isolate PFWCKFQQSKAMFPCSWF],binding result,[1],binds
DALEAPKRDWYYDWFLNHSP [phage isolate DALEAPKRDWYYDWFLNHSP],binding result,[2],binds
PGWCDFSPQLGQWMCDWF [phage isolate PGWCDFSPQLGQWMCDWF],binding result,[1],binds
ASTCVFHDHPYFPMCQDN [phage isolate ASTCVFHDHPYFPMCQDN],binding result,[1],binds
EWYWTEHVGMKHGFFV [phage isolate EWYWTEHVGMKHGFFV],binding result,[2],binds
PDTCTMWGDSGRWYCFPA [phage isolate PDTCTMWGDSGRWYCFPA],binding result,[1],binds
QVQYQFFLGTPRYEQWDLDK [phage isolate QVQYQFFLGTPRYEQWDLDK],binding result,[2],binds
QVQYQFILGTPRYEQWDPDK [phage isolate QVQYQFILGTPRYEQWDPDK],binding result,[2],binds
EPEGYAYWEVITLYHEEDGD [phage isolate EPEGYAYWEVITLYHEEDGD],binding result,[2],binds
LGYCMYDYENRGWTCYPP (not fully specified; cysteine pairing not given here) [phage isolate LGYCMYDYENRGWTCYPP],binding result,[1],binds
EEQQALYPGCEPAEHWVYAG [phage isolate EEQQALYPGCEPAEHWVYAG],binding result,[2],binds
WWECKREEYRNTTWCAWA [phage isolate WWECKREEYRNTTWCAWA],binding result,[1],binds
NSECGCPNMLHKEFCARH [phage isolate NSECGCPNMLHKEFCARH],binding result,[1],binds
AFEIEYWDSVRNKIWQHFPD [phage isolate AFEIEYWDSVRNKIWQHFPD],binding result,[2],binds
NWECGWSNMFQKEFCARP [phage isolate NWECGWSNMFQKEFCARP],binding result,[1],binds
AQMPPWWPLAVDALFDWFE [phage isolate AQMPPWWPLAVDALFDWFE],binding result,[2],binds
WVTKQQFIDTYGRKEWTILF [phage isolate WVTKQQFIDTYGRKEWTILF],binding result,[2],binds
YSDCLFQLWKGSVCPPS [phage isolate YSDCLFQLWKGSVCPPS],binding result,[1],binds
YSHCIETSMENIWFCDFD [phage isolate YSHCIETSMENIWFCDFD],binding result,[1],binds
WDDCIWHMWLKKKDCNSG [phage isolate WDDCIWHMWLKKKDCNSG],binding result,[1],binds
WLYDYWDRQQKSEEFKFWSQ [phage isolate WLYDYWDRQQKSEEFKFWSQ],binding result,[2],binds
DNWCEIVVEKGQWFCYGS [phage isolate DNWCEIVVEKGQWFCYGS],binding result,[1],binds
PPLCYFVGTQEWHHCNPF [phage isolate PPLCYFVGTQEWHHCNPF],binding result,[1],binds
SGYCEFESDTGRWFCSSW [phage isolate SGYCEFESDTGRWFCSSW],binding result,[1],binds
SSVCFEYSWGGEVCFRY [phage isolate SSVCFEYSWGGEVCFRY],binding result,[1],binds
AGWCEYVAPQGAWRCFHN [phage isolate AGWCEYVAPQGAWRCFHN],binding result,[1],binds
EWDAQYWHDLRQQYMLDYIQ [phage isolate EWDAQYWHDLRQQYMLDYIQ],binding result,[2],binds
FSVCWEYSWGGEVCLRQ [phage isolate FSVCWEYSWGGEVCLRQ],binding result,[1],binds
GWACAKWPWGGEICQPS [phage isolate GWACAKWPWGGEICQPS],binding result,[1],binds
PVTDWTPHHPKAPDVWLFYT [phage isolate PVTDWTPHHPKAPDVWLFYT],binding result,[2],binds

# — patent EP2014310A2 (Dyax Corporation, dated 2009)
